In data set [1] the target is T1, PcrA Mge (Mycoplasma genitalium strain G37, UniProt P47486 1-703).
T1 sequence: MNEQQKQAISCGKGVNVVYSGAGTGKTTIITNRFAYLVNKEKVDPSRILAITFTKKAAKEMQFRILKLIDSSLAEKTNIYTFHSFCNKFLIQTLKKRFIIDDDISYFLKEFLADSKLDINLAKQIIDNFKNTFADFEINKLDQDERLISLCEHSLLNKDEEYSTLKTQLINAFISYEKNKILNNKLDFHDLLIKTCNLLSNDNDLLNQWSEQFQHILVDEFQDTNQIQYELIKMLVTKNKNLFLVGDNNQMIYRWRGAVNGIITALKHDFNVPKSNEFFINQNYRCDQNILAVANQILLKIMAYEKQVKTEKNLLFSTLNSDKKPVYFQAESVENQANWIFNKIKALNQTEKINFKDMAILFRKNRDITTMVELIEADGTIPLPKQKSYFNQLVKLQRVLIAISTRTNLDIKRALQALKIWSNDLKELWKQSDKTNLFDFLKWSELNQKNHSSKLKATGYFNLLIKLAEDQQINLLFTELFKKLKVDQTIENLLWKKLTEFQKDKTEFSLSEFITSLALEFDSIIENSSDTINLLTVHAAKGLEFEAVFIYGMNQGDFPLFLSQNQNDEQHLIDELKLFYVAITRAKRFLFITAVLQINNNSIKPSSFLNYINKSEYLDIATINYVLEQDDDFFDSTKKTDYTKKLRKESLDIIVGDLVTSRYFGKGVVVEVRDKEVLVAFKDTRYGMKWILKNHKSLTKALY
The experiment in a line: EMSA; 22-200 nM protein; 20 mM Tris-HCl pH 7.5, 1 mM DTT, 50 ng/ul BSA, 8 nM DNA, 15 min at room temperature, no Mg2+ or ATP listed; 6% PAGE in 1x TBE. The settings on record: protein: recombinant; tags: N-terminal MBP; label: 5' 6-FAM.

The target of data set [2] is T2, PcrA Mpn (Mycoplasma pneumoniae strain M129, UniProt P75437 1-715).
T2 sequence: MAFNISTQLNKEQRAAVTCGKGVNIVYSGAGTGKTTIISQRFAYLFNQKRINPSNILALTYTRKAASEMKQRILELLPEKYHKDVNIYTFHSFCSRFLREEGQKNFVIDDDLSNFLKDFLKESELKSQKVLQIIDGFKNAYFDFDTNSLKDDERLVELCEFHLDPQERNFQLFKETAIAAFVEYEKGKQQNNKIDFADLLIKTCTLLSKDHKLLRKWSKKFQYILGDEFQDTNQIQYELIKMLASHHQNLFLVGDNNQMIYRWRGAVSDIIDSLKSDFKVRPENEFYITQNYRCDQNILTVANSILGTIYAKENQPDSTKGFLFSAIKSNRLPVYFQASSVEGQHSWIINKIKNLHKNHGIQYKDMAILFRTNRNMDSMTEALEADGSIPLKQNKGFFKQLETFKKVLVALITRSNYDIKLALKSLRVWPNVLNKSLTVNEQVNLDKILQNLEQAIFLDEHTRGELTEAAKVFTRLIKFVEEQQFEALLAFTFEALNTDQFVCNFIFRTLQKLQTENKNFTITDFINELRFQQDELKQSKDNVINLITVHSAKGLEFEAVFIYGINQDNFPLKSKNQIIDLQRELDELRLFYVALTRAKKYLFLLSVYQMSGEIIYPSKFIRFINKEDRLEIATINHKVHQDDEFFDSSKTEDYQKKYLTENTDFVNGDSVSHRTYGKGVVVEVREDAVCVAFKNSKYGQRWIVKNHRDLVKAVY
The data set is described as above. The following applies: protein: recombinant; tags: N-terminal MBP; label: 5' 6-FAM.

A further data set concerns the target T3, PcrAs M129 (Mycoplasma pneumoniae strain M129, UniProt P75438 1-529).
T3 sequence: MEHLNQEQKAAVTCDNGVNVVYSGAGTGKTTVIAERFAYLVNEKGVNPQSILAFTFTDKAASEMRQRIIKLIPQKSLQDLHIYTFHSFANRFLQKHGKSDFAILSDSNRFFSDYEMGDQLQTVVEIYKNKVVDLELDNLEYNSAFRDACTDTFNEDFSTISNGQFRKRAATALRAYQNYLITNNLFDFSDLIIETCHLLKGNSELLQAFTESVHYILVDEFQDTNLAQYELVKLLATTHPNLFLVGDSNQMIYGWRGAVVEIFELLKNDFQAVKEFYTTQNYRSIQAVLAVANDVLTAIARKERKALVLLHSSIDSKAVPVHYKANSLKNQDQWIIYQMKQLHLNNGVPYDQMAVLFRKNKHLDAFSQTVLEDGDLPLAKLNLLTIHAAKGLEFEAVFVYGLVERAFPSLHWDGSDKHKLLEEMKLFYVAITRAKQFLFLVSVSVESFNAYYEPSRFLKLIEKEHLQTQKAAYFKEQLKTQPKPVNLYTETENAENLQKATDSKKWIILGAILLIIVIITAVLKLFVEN
The experiment in a line: EMSA; up to 200 nM protein; 20 mM Tris-HCl pH 7.5, 1 mM DTT, 50 ng/ul BSA, 8 nM DNA, 15 min at room temperature, no Mg2+ or ATP listed; 6% PAGE in 1x TBE. The following applies: protein: recombinant, tags: N-terminal MBP. On the technique in general: Mobility shift assays separate free from complexed probe on a gel.

The target in data set [3] is T1, PcrA Mge. Put plainly: EMSA; 22-200 nM protein; most complexes did not enter gel; 20 mM Tris-HCl pH 7.5, 1 mM DTT, 50 ng/ul BSA, 8 nM DNA, 15 min at room temperature, no Mg2+ or ATP listed; 6% PAGE in 1x TBE. The settings on record: protein: recombinant; tags: N-terminal MBP; label: 5' 6-FAM on one strand; 3' overhang 24 nt.
Data set [4] deals with T2, PcrA Mpn. Described as above. The settings on record: protein: recombinant; tags: N-terminal MBP; label: 5' 6-FAM on one strand; 3' overhang 24 nt.
The target of data set [5] is T2, PcrA Mpn. Put plainly: EMSA; 22-200 nM protein; discrete complex III; 20 mM Tris-HCl pH 7.5, 1 mM DTT, 50 ng/ul BSA, 8 nM DNA, 15 min at room temperature, no Mg2+ or ATP listed; 6% PAGE in 1x TBE. The following applies: protein: recombinant; tags: N-terminal MBP; label: 5' 6-FAM on one strand; 5' overhang 24 nt.
For data set [6], the target named is T1, PcrA Mge. Put plainly: EMSA; 22-200 nM protein; discrete complex IV; 20 mM Tris-HCl pH 7.5, 1 mM DTT, 50 ng/ul BSA, 8 nM DNA, 15 min at room temperature, no Mg2+ or ATP listed; 6% PAGE in 1x TBE. The following applies: protein: recombinant; tags: N-terminal MBP; label: 5' 6-FAM on one strand; 5' overhang 24 nt.

B1: oligonucleotide 1 (ssDNA)
DNA: CAAAGTAAGAGCTTCTCGAGCTGCGCAAGGATAGGTCGAATTTTCTCATTTT
As to B1, the binding result was “binds” in the data set with PcrA Mge [1], “binds” in the data set with PcrA Mpn [2] and “no binding” with PcrAs M129 (label: 5' 6-FAM).

B2: substrate a (dsDNA)
DNA 1: CAAAGTAAGAGCTTCTCGAGCTGCGCAAGGATAGGTCGAATTTTCTCATTTT
DNA 2: AAAATGAGAAAATTCGACCTATCCTTGCGCAGCTCGAGAAGCTCTTACTTTGATCGGATCCATGAATGAACAACAA
As to B2, the binding result in the data set with PcrA Mge [3] is reported as “binds”; with PcrA Mpn [4], “binds”; in the data set with PcrAs M129 (label: 5' 6-FAM on one strand, 3' overhang 24 nt) it was “no binding”.

B3: substrate b (dsDNA)
DNA 1: CAAAGTAAGAGCTTCTCGAGCTGCGCAAGGATAGGTCGAATTTTCTCATTTT
DNA 2: ATCGGATCCATGAATGAACAACAAAAAATGAGAAAATTCGACCTATCCTTGCGCAGCTCGAGAAGCTCTTACTTTG
For B3, the binding result with PcrA Mpn [5] is on record as “binds”; in the data set with PcrA Mge [6], “binds”; with PcrAs M129 (label: 5' 6-FAM on one strand, 5' overhang 24 nt), “no binding”.

B4: substrate c (dsDNA)
DNA 1: CAAAGTAAGAGCTTCTCGAGCTGCGCAAGGATAGGTCGAATTTTCTCATTTT
DNA 2: AAAATGAGAAAATTCGACCTATCCTTGCGCAGCTCGAGAAGCTCTTACTTTG
Regarding B4, the binding result in the data set with PcrAs M129 (label: 5' 6-FAM on one strand, blunt) was “no binding”.
